Assay results published in patent US20240218030A1 (published 2024).

Target: human transferrin receptor-Fc tag standard (human, UniProt P02786 89-760)
Experiment: ELISA

Sequence of human transferrin receptor-Fc tag standard (P02786 89-760): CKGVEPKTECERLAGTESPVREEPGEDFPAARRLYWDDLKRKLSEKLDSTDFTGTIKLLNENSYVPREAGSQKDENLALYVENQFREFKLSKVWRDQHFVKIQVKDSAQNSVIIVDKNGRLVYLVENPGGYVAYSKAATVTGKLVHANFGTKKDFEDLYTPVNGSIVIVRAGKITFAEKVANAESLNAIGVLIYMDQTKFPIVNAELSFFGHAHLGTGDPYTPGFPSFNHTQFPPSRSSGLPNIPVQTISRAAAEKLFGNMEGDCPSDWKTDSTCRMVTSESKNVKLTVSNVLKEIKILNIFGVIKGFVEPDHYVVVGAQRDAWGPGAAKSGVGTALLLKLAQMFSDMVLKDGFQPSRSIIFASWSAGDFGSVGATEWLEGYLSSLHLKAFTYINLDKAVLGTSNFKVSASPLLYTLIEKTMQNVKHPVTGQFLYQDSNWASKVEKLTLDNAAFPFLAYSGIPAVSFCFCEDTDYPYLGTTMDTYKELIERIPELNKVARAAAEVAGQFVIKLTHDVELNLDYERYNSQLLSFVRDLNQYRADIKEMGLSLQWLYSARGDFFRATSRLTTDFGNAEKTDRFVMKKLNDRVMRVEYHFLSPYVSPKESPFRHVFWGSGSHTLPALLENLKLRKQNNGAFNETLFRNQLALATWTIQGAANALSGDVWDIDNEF

- Kd: 182 nM
B1: huHF_Mutant1-dual (designed binder)
chain: MTTASTSQVRQNYHAASEAAINAQINLELYASYVYLSMSYYFDRDDVALKNFAKYFLHQSHEEREHAEKLMKLQNQRGGRIALADIQKPDCDDGGSYGSLYAFDIWESGLNAMECALHLEKNVNQSLLELHKLATDKNDPHLCDFIETHYLNEQVKAIKELGDHVTNLRKMGAPESGLAEYLFDKHTLGDSDNESMPSFITLASLSTWEGYFDF
